Assay results published in doi:10.1101/827477.

Biological target: BG505_mut123_N241 SOSIP (HIV-1 (subtype A, BG505)) (UniProt Q2N0S6)
Experiment: negative-stain EM

B1: 13B Fab (Fab, V domains shown)
VH: LEESGGGLVQPEGSLTLTCKASGFDFSDYHVQWVRQSPGKGLEFIGGIAYTGNIYYASWAKGRFTISKTSSTTVTLQMTTLTAADTATYFCARAYGYASAPYAQYFNLWGPGTLVTVSS
VL: DIVMTQTPASVSEPVGGTVTINCQASQSRGNNYLSWYQQKPGQSPSLLIYRTSTLASGVPSRFKGSGSGTQFTLTISDLECADAATYYCLYGYYSSRNPDFAFGGGTEVVVK
percent of particles with no Fab bound: 57% | percent of particles with one Fab bound: 43%
